# Test results: patent US10000771B2, “Nuclear targeting sequences” (Yeda Research and Development Co. Ltd., priority 2007, dated 2018)
# B1: APA-ERK2: GFP-ERK2 with the two Ser residues of the SPS sequence replaced by Ala (protein)
# chain: MAAAAAAGPEMVRGQVFDVGPRYTNLSYIGEGAYGMVCSAYDNLNKVRVAIKKISPFEHQTYCQRTLREIKILLRFRHENIIGINDIIRAPTIEQMKDVYIVQDLMETDLYKLLKTQHLSNDHICYFLYQILRGLKYIHSANVLHRDLKPSNLLLNTTCDLKICDFGLARVADPDHDHTGFLTEYVATRWYRAPEIMLNSKGYTKSIDIWSVGCILAEMLSNRPIFPGKHYLDQLNHILGILGAPAQEDLNCIINLKARNYLLSLPHKNKVPWNRLFPNADSKALDLLDKMLTFNPHKRIEVEQALAHPYLEQYYDPSDEPIAEAPFKFDMELDDLPKEKLKELIFEETARFQPGYRS
# modifications: left off: large carriers
# What was measured:
# [1] = biological target: T1, Act-GST-ERK2 (Rattus norvegicus, UniProt P63086); assay: In vitro kinase assay with active GST-ERK2; type: biochemical; conditions: immunoprecipitated protein as substrate, relative to GFP-ERK2
# T1 construct: made in house; host or cells: bacteria co-expressing active MEK1
# T1 sequence (P63086 whole entry): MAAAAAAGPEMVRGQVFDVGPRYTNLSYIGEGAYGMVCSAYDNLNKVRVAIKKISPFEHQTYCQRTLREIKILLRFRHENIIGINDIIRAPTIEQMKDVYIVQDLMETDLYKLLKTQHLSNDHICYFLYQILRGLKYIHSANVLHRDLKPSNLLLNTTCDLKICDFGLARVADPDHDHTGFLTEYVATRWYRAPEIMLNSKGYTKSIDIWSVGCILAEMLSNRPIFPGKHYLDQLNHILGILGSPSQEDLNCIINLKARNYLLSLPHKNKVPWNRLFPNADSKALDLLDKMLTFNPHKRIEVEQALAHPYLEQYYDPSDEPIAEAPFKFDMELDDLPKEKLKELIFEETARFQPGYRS
# Experimental: FIGS. 4A-4I are autoradiographs characterizing SPS phosphorylation using an Ab to the phosphorylated SPS domain. FIG. 4A illustrates an elevation of pSPS detection upon stimulation. COS cells were transfected with WT-GFP-ERK2. Twenty-four hr after transfection, the cells were serum-starved for 16 hr and subsequently treated with the general stimulator VOOH (V, 100 μM Na3VO4 and 200 μM H2O2, 15 min), TPA (T, 250 nM, 15 min), EGF (E, 50 ng/ml for 15 min), or left untreated (NT). The GFP-ERK2 was immunoprecipitated with anti GFP Ab, extensively washed, and the IP was then subjected to Western blotting with anti phospho SPS-ERK (αphoSPS-ERK) and anti general ERK (αgen-ERK) Abs. FIG. 4B is a time course of SPS phosphorylation. […] SPS phosphorylation was detected using the anti pSPS Abs, and this was compared to the amount of genral ERKs detected by αgERK. […] SPS-phosphorylation was detected using αpSPS and αgERK Abs. […] The phosphorylation (^32P-ERK2) of ERK and its mutants was detected by autoradiography. […]
# Some protein kinases downstream of MEKs that may be involved in the SPS phosphorylation are ERKs themselves (autophosphorylation) as their consensus phosphorylation site includes Ser/Thr followed by a Pro (Yoon and Seger, 2006, Growth Factors, 24, 21-44). […] As expected, ^32P incorporation to GFP-ERK2 was detected mainly when this protein was incubated with Act-ERK2. […]
# [2] = biological target: T2, importin-7 (Homo sapiens, UniProt O95373); assay: Coimmunoprecipitation with importin-7; type: binding; conditions: HeLa cells, coimmunoprecipitation with anti GFP Ab, with or without stimulation
# T2 construct: endogenous in cells; host or cells: HeLa
# T2 sequence (O95373 whole entry): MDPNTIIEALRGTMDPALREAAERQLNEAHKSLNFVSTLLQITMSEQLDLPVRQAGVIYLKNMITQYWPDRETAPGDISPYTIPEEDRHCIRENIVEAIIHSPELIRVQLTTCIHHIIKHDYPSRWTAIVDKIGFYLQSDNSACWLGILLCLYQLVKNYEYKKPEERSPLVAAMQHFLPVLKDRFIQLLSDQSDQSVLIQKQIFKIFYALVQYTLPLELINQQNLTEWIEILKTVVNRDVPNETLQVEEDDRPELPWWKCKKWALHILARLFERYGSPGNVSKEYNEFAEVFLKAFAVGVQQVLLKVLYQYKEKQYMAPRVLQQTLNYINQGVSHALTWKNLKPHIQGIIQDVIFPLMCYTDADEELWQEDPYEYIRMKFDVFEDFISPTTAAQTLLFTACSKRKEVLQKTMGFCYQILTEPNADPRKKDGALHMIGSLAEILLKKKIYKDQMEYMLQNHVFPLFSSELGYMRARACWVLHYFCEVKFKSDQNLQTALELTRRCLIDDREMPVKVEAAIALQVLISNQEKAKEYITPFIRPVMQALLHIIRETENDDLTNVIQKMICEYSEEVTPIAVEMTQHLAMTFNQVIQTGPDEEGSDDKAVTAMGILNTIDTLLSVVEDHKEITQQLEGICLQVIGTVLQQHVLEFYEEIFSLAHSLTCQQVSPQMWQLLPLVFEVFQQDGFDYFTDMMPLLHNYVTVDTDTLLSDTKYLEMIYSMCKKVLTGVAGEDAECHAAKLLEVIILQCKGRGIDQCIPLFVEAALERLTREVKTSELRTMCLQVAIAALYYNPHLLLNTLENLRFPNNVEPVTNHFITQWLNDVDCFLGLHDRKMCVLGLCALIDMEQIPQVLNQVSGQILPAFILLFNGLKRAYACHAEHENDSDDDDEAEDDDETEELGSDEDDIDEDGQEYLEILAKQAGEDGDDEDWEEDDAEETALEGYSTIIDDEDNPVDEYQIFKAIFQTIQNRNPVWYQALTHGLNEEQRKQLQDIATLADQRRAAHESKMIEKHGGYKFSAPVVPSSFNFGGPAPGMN
# Experimental: FIGS. 19A-19C are autoradiographs illustrating that phospho-SPS interacts with importin-7 and releases Nup153c binding without involvment of importin-β. […]. Interaction of ERK2 with Importin-7 is enhanced by EGF stimulation and EPE mutation. HeLa cells overexpressing WT-ERK (WT), ERK-APA (APA), ERK-EPE (EPE) or GFP were serum starved and treated with EGF (50 ng/ml, 10 min). The extracts of the treated cells were then subjected to coimmunoprecipitation using A/G beads pre-conjugated with anti GFP Ab and mild washes. The coimmunoprecipitated importin-7 (first panel) and importin-β (third panel), as well as their loading amounts (panels 2 and 4 respectively) were determined by WB using anti importin-7 (αImp7) and importin-β (αImpβ) Abs. The equal amount of immunoprecipitated ERKs was determined with anti GFP (αGFP; IP) Ab. FIG. 19B. Interaction of 2GFP-SPS and its mutants with importin-7. HeLa cells overexpressing 2GFP, 2GFP-SPS, 2GFP-APA and 2GFP-EPE constructs were subjected to coimmunoprecipitation as described in FIG. 19A (without EGF stimulation). FIG. 19C. Interaction of NUP153 with WTERK2 and its APA and EPE mutants. NUP153c is elevated in APA-ERK2, but reduced in EPE-ERK2. Immunoprecipitated and stringently washed WT-ERK2 (WT), APA-ERK2 (APA) or ERK2 from […] cells pre-treated with or without TPA (250 nM, 15 min) were incubated with 0.5 μg recombinant His-Nup153c. […]
molecule,measurement,setting,value
B1,reduction of phosphorylation (32P incorporation) by Act-ERK2,[1],~80%
same,interaction of ERK2 constructs with importin-7,[2],reduced the interaction
